Patent US20200165308A1 (UNIVERSITY OF MANITOBA, published 2020)

Assays:
[1] = target: T1, extracellular domains of UNC5h2 (CAD32251, aa: 25-374) (Mus musculus, UniProt Q8K1S3 25-374); assay: solid-phase binding
T1 construct: also called UNC5h2 full-length ectodomain; not shown: C-terminal double Strep-tag II

[2] = target: T2, Netrin-1 (NET1) from Mus musculus lacking the C-terminal domain (NP_032770, aa: 24-457) (Mus musculus, UniProt O09118 24-457); assay: solid-phase binding
[3] = target: T2, Netrin-1 (NET1) from Mus musculus …; assay: solid-phase binding, NEO1 immobilized

| Binder | binding result [2] | further results |
| --- | --- | --- |
| NET1 with the eight loop a/b residues 348RRCRFNME355 replaced by the equivalent residues from NET4 (339DTCHFDVN346) (ligand, C350 and F352 are the same in both; also called NET1/NET4 loop a/b swap) not shown | – | fold drop in affinity against wild type NET1 [1]: 50 fold |
| UNC5h2 IgG1 (CAD32251, aa: 52-153) (receptor, also called Ig1; Ig1 domain of UNC5h2; not shown: C-terminal double Strep-tag II) not shown | binds | – |
| UNC5h2 IgG2 (CAD32251, aa: 154-245) (receptor, also called Ig2; Ig2 domain of UNC5h2; not shown: C-terminal double Strep-tag II) not shown | no binding | – |
| full-length ectodomain of NEO1 (AAH54540, aa: 41-1107) (receptor, also called neogenin; NEO1 full-length ectodomain; not shown: C-terminal double Strep-tag II) GAAATKSGSPPQSAGASVRTFTPFYFLVEPVDTLSVRGSSVILNCSAYSEPSPNIEWKKDGTFLNLESDDRRQLLPDGSLFISNVVHSKHNKPDEGFYQCVATVDNLGTIVSRTAKLTVAGLPRFTSQPEPSSVYVGNSAILNCEVNADLVPFVRWEQNRQPLLLDDRIVKLPSGTLVISNATEGDGGLYRCIVESGGPPKFSDEAELKVLQDPEEIVDLVFLMRPSSMMKVTGQSAVLPCVVSGLPAPVVRWMKNEEVLDTESSGRLVLLAGGCLEISDVTEDDAGTYFCIADNGNKTVEAQAELTVQVPPGFLKQPANIYAHESMDIVFECEVTGKPTPTVKWVKNGDVVIPSDYFKIVKEHNLQVLGLVKSDEGFYQCIAENDVGNAQAGAQLIILEHDVAIPTLPPTSLTSATTDHLAPATTGPLPSAPRDVVASLVSTRFIKLTWRTPASDPHGDNLTYSVFYTKEGVARERVENTSQPGEMQVTIQNLMPATVYIFKVMAQNKHGSGESSAPLRVETQPEVQLPGPAPNIRAYATSPTSITVTWETPLSGNGEIQNYKLYYMEKGTDKEQDIDVSSHSYTINGLKKYTEYSFRVVAYNKHGPGVSTQDVAVRTLSDVPSAAPQNLSLEVRNSKSIVIHWQPPSSTTQNGQITGYKIRYRKASRKSDVTETLVTGTQLSQLIEGLDRGTEYNFRVAALTVNGTGPATDWLSAETFESDLDETRVPEVPSSLHVRPLVTSIVVSWTPPENQNIVVRGYAIGYGIGSPHAQTIKVDYKQRYYTIENLDPSSHYVITLKAFNNVGEGIPLYESAVTRPHTVPDPTPMMPPVGVQASILSHDTIRITWADNSLPKHQKITDSRYYTVRWKTNIPANTKYKNANATTLSYLVTGLKPNTLYEFSVMVTKGRRSSTWSMTAHGATFELVPTSPPKDVTVVSKEGKPRTIIVNWQPPSEANGKITGYIIYYSTDVNAEIHDWVIEPVVGNRLTHQIQELTLDTPYYFKIQARNSKGMGPMSEAVQFRTPKALGSAGKGSRLPDLGSDYKPPMSGSNSPHGSPTSPLDSN | – | binding result [3]: binds |
